Measurements as given in patent US20210206877A1 (Genentech, published 2021).
Numbering of substitutions follows the chain as printed.

Columns and labels:
Assay in all cases: cell-based or functional assay
[1] = target: human BACE1 ECD (human, UniProt P56817)
[2] = target: murine BACE1 ECD
[3] = target: BACE1 ECD (as used in the enzyme activity assay) (UniProt P56817 22-457, limits assumed)
[4] = target: BACE1 endogenous to primary cortical neurons from E16.5 CD1 mice (mouse, UniProt P56818 46-501)
For % inhibition, FRET short substrate assay (negative = activation) in this document: test concentration or dose not given here.

BACE1 ECD (as used in the enzyme activity assay), sequence (P56817 22-457 limits assumed): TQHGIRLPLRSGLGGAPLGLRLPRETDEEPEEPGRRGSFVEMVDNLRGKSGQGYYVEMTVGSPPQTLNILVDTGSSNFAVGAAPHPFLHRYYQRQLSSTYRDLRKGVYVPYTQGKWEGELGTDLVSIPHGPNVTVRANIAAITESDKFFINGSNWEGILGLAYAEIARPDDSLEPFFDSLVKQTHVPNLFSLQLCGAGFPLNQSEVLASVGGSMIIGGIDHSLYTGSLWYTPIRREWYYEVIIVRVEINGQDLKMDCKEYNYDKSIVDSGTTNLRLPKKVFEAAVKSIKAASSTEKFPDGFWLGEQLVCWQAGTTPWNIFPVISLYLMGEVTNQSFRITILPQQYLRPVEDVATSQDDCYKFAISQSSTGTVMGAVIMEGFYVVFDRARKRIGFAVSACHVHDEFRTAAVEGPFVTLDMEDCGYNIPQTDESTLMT
human BACE1 ECD, sequence (P56817 22-457): as the sequence (P56817 22-457 limits assumed) above
BACE1 endogenous to primary cortical neurons from E16.5 CD1 mice, sequence (P56818 46-501): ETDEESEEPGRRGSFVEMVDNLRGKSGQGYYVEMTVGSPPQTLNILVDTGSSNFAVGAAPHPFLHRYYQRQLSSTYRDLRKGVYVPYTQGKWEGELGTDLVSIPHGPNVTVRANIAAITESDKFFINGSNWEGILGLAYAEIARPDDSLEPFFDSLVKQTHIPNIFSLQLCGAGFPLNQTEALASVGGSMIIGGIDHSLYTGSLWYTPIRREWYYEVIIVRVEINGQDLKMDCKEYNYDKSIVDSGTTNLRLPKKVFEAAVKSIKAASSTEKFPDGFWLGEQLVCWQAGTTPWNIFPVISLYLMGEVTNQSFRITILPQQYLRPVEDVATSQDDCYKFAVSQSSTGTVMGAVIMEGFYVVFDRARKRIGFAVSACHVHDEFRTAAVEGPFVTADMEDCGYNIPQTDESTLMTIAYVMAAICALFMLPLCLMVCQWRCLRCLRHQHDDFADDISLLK
murine BACE1 ECD, sequence (single chain, as listed by the source limits assumed): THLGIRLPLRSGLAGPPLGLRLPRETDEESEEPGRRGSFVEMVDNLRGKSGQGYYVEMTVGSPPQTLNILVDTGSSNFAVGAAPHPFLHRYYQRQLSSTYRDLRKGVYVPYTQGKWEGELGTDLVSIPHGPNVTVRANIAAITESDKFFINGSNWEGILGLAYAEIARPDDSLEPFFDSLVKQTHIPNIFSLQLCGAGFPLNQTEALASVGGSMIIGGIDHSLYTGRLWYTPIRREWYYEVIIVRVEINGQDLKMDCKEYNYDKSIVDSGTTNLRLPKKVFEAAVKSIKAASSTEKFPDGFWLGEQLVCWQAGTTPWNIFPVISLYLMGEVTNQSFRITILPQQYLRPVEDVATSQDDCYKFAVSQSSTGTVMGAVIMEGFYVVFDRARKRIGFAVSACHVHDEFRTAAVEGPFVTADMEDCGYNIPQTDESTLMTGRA

B1: 5260 (antibody, V domains shown)
VH: QVQLVQSGAEVKKPGSSVKVSCKASGGTFSSYAISWVRQAPGQGLEWMGSIIPIFGTANYAQKFQGRVTITADESTSTAYMELSSLRSEDTAVYYCARSGGTKYGMLDVWGQGTMVTVSS
VL: EIVMTQSPATLSVSPGERATLSCRASQSVGSNLAWYQQKPGQAPRLLIYGASTRATGIPARFSGSGSGTEFTLTISSLQSEDFAVYYCQQAVVWPPRTFGGGTKVEIK
[1]
  % inhibition, FRET short substrate assay (negative = activation): -54%
[2]
  % inhibition, FRET short substrate assay (negative = activation): -35%
[3]
  EC50, FRET short substrate assay: 36.8 nM
  EC50, HTRF long substrate assay: 720 nM
[4]
  max % inhibition, Abeta x-40 in mouse cortical neurons: 74%

B2: 5884 (antibody, V domains shown)
VH: B1 VH with S31G, A33G, S50N, I54G
VL: B1 VL with G30S, A91L, V92I, V93L
[1]
  % inhibition, FRET short substrate assay (negative = activation): -102%
[2]
  % inhibition, FRET short substrate assay (negative = activation): -243%
[3]
  EC50, FRET short substrate assay: 0.478 nM
  EC50, HTRF long substrate assay: 7.76 nM
[4]
  IC50, Abeta x-40 in mouse cortical neurons (row 5884*, second run): 3.51 nM
  max % inhibition, Abeta x-40 in mouse cortical neurons: 83%

B3: 5883 (antibody, V domains shown)
VH: B1 VH with S50G, F55G, T57G
VL: B1 VL with G30S, A91L, V92I, V93L
[1]
  % inhibition, FRET short substrate assay (negative = activation): -129%
[2]
  % inhibition, FRET short substrate assay (negative = activation): -275%
[3]
  EC50, FRET short substrate assay: 0.607 nM
  EC50, HTRF long substrate assay: 5.93 nM
[4]
  max % inhibition, Abeta x-40 in mouse cortical neurons: 82%

B4: 5747 (antibody, V domains shown)
VH: QLQLQESGPGLVKPSETLSLTCTVSGGSISSSSYYWGWIRQPPGKGLEWIGNIYYSGSTYYNPSLKSRVTISVDTSKNQFSLKLSSVTAADTAVYYCARLGHGYSYFDLWGRGTLVTVSS
VL: EIVLTQSPATLSLSPGERATLSCRASQSVSSYLAWYQQKPGQAPRLLIYDASNRATGIPARFSGSGSGTDFTLTISSLEPEDFAVYYCQQVYLWPPRTFGGGTKVEIK
[4]
  max % inhibition, Abeta x-40 in mouse cortical neurons: 74%

B5: 5571 (antibody, V domains shown)
VH: B1 VH with S50N, M115V
VL: B1 VL with G30S, A91L, V92I, V93L
[1]
  % inhibition, FRET short substrate assay (negative = activation): -89%
[2]
  % inhibition, FRET short substrate assay (negative = activation): -175%
[3]
  EC50, FRET short substrate assay: 0.417 nM
  EC50, HTRF long substrate assay: 5.06 nM
[4]
  max % inhibition, Abeta x-40 in mouse cortical neurons: 84%

B6: 5902 (antibody, V domains shown)
VH: B4 VH with N52S, Y55R, Y60W, L100V, Y104I
VL: B4 VL with N53K, L93T
[4]
  max % inhibition, Abeta x-40 in mouse cortical neurons: 67%

B7: 5536 (antibody, V domains shown)
VH: B1 VH
VL: B1 VL with A91S, V92Y, V93L
[1]
  % inhibition, FRET short substrate assay (negative = activation): 32%
[2]
  % inhibition, FRET short substrate assay (negative = activation): 30%
[3]
  EC50, HTRF long substrate assay: 0.578 nM
[4]
  max % inhibition, Abeta x-40 in mouse cortical neurons: 84%

B8: 5887 (antibody, V domains shown)
VH: B1 VH with S30R, S31G, S50N, I54G
VL: B1 VL with G30S, A91L, V92I, V93L
[1]
  % inhibition, FRET short substrate assay (negative = activation): -102%
[2]
  % inhibition, FRET short substrate assay (negative = activation): -230%
[3]
  EC50, FRET short substrate assay: 0.482 nM
  EC50, HTRF long substrate assay: 5.5 nM
[4]
  IC50, Abeta x-40 in mouse cortical neurons (row 5887*, second run): 2.53 nM
  max % inhibition, Abeta x-40 in mouse cortical neurons: 75%

B9: 5643 (antibody, V domains shown)
VH: B4 VH with N52S, L100V, Y104I
VL: B4 VL with V91S, Y92L, L93T
[3]
  EC50, FRET short substrate assay: 1.41 nM
  EC50, HTRF long substrate assay: 17.7 nM
[4]
  max % inhibition, Abeta x-40 in mouse cortical neurons: 60%

B10: 5572 (antibody, V domains shown)
VH: B1 VH
VL: B1 VL with A91L, V92Y, V93T
[1]
  % inhibition, FRET short substrate assay (negative = activation): 75%
[2]
  % inhibition, FRET short substrate assay (negative = activation): 77%
[3]
  EC50, FRET short substrate assay: 15.9 nM
  EC50, HTRF long substrate assay: 1.28 nM
[4]
  max % inhibition, Abeta x-40 in mouse cortical neurons: 73%

B11: 5543 (antibody, V domains shown)
VH: B4 VH with N52S, L100V, Y104I
VL: B4 VL with V91A, L93V
[3]
  EC50, FRET short substrate assay: 9.11 nM
  EC50, HTRF long substrate assay: 30 nM
[4]
  max % inhibition, Abeta x-40 in mouse cortical neurons: 65%

B12: 5539 (antibody, V domains shown)
VH: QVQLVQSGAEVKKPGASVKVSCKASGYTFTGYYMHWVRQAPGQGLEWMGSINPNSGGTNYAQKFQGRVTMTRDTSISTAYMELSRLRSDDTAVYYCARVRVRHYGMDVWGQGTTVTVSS
VL: DIQMTQSPSSLSASVGDRVTITCRASQSISSYLNWYQQKPGKAPKLLIYAASSLQSGVPSRFSGSGSGTDFTLTISSLQPEDFATYYCQQPLSHPRTFGGGTKVEIK
[1]
  % inhibition, FRET short substrate assay (negative = activation): 42%
[2]
  % inhibition, FRET short substrate assay (negative = activation): 23%
[3]
  EC50, HTRF long substrate assay: 0.694 nM
[4]
  max % inhibition, Abeta x-40 in mouse cortical neurons: 45%

B13: 5881 (antibody, V domains shown)
VH: EVQLLESGGGLVQPGGSLRLSCAASGFTFSKYAMSWVRQAPGKGLEWVSAISGSGISTPYADSVKGRFTISRDNSKNTLYLQMNSLRAEDTAVYYCAKGAGHGSYVKGWFDPWGQGTLVTVSS
VL: EIVLTQSPATLSLSPGERATLSCRASQSVSSYLAWYQQKPGQAPRLLIYDASNRATGIPARFSGSGSGTDFTLTISSLEPEDFAVYYCQQSVNFPFTFGGGTKVEIK
[1]
  % inhibition, FRET short substrate assay (negative = activation): 97%
[2]
  % inhibition, FRET short substrate assay (negative = activation): 98%
[3]
  EC50, FRET short substrate assay: 5.93 nM
  EC50, HTRF long substrate assay: 33.7 nM

B14: 5583 (antibody, V domains shown)
VH: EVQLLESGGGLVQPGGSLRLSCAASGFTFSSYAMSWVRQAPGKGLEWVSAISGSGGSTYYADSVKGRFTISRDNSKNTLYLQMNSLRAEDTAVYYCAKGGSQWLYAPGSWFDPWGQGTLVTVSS
VL: B13 VL with Q89V, S91R, V92S, F96W
[1]
  % inhibition, FRET short substrate assay (negative = activation): 44%
[2]
  % inhibition, FRET short substrate assay (negative = activation): 34%
[3]
  EC50, FRET short substrate assay: 9.72 nM
  EC50, HTRF long substrate assay: 172 nM

B15: 5876 (antibody, V domains shown)
VH: EVQLLESGGGLVQPGGSLRLSCAASGFTFSSRAMGWVRQAPGKGLEWVSATSGSGGSIYYADSVKGRFTISRDNSKNTLYLQMNSLRAEDTAVYYCAKGGSQWLYAPGSWFDPWGQGTLVTVSS
VL: B13 VL with Q89V, S91R, V92S, F96W
[1]
  % inhibition, FRET short substrate assay (negative = activation): 58%
[2]
  % inhibition, FRET short substrate assay (negative = activation): 46%
[3]
  EC50, FRET short substrate assay: 0.703 nM
  EC50, HTRF long substrate assay: 1.67 nM

B16: 5874 (antibody, V domains shown)
VH: B15 VH with S30G, R32Y, G35S, I58T, N84D
VL: B13 VL with Q89V, S91R, V92S, F96W
[1]
  % inhibition, FRET short substrate assay (negative = activation): 37%
[2]
  % inhibition, FRET short substrate assay (negative = activation): 33%
[3]
  EC50, FRET short substrate assay: 0.798 nM
  EC50, HTRF long substrate assay: 3.97 nM

B17: 5875 (antibody, V domains shown)
VH: B15 VH with S31T, R32Y, I58T
VL: B13 VL with Q89V, S91R, V92S, F96W
[1]
  % inhibition, FRET short substrate assay (negative = activation): 51%
[2]
  % inhibition, FRET short substrate assay (negative = activation): 39%
[3]
  EC50, FRET short substrate assay: 1.99 nM
  EC50, HTRF long substrate assay: 4.9 nM
